Earlier results on two substances are cited in publication PMC12442452.

Broadly, the pKa is the negative logarithm of the acid dissociation constant.

Series [1] deals with T1, Cys25 (UniProt position 147, GQCGSCWAFSA). The conditions noted are these: ligand-free cruzain.
Series [2] concerns the target His162 (UniProt position 284, SEQLDHGVLLV). Put plainly: kinetics. The conditions noted are these: apo (free) enzyme.
Series [3] has as its target T1, Cys25. Put plainly: kinetics. The conditions noted are these: apo (free) enzyme.
The target in series [4] is Cys25 (UniProt position 158, GSCGSCWAFSA). The conditions noted are these: not stated (apo enzyme implied).

Where two headings read alike, the source gives them in different places.

On to “Cruzain (cruzipain, major cysteine protease) (Trypanosoma cruzi)”, for which the pKa in series [1] was 9.8; in series [2], 6.6; in series [3], 9.7.
Consider “Papain (Carica papaya (inferred; not stated in the article))”, for which the pKa in series [4] is given as 3.3.
